# From the DeepSol protein solubility set
# Test: soluble on expression in E. coli; label from the status in PepcDB or PDB records
row,Sequence,soluble on expression in E. coli
1,SAPAPPSGWSQVFLDDFDGAAGSSVNTANWQFDTGTSYPGGAGNWGTGEVESMTSSTSNVSLDGNGDLLITPRRDASGNWTSGRIETTRTDFQPPAGGKLRVEARLQMPNVTGDAAAGYWPAFWMLGAPFRGNYQNWPGVGELDIMENVQGLNKTWATMHCGTSPGGPCNETSGIGNSTACPNTTCQSGFHTYTMEWDRSVSPEAIRFSVDGVTYQTVTANQMDAATWTNATNHGFFVILNVAMGGGFPGAFGGGPTGATEPGHPMVVDYVQVTSLSPGL,soluble
2,SAQDLRMSYCYAKFEGGKCSSPKSRNHSKQECCCALKGEGWGDPCELCPTEPDEAFRQICPYGSGIIVGPDDSA,soluble
3,SAQTTDTGWMTNPQHPPVQTRFVLTGQQDPQAKTLTGYLDVKLTGDWKTYWRSPGEGGVAPSIDWQNSQNLSKVDWQWPYPQKFELLGIETLGYKGDTLFPMTLHIDNMSKPVTIDAVLTLSSCTTICVLTDYQIQLTFLPSELQIDEQVMFSYAQAVSNVPQPSPFIDVTQASWDANQSKLQIKLTNTQGWNQPQVLVDGVDEATRDYSFKLEGIHQEGNTVTASYLVDTWLGDVELSDQSLFVTIKDANLLAEETTQAIAEAIVDPLPSTSVVS,soluble
4,SASSIICQEHCQISGQAKIDILLVGDVTVGYLADTVQKLFANIAEVTITISDTKEAAALLDDCIFNMVLLKVPSSLSAEELEAIKLIRFGKKKNTHSLFVFIIPENFKGCISGHGMDIALTEPLTMEKMSNVVKYWTTCPSNTVKTENATGPEELGLPLQRSYSEHLGYFPTDLFACSESLRNGNGLELNASLSEFEKNKKISLLHSSKEKLRRLYRKHSSFCFW,soluble
5,SASVLKETAGLYETLKAEWNKKNPNLNKCGELLSKLKISLLELNFLPTTGTKLTKQQLILARDVLEIGALWSILKKDIPSFERYMAQLKCYYFDYKDELPESAYRHQLLGLNLLFLLSQNRVSEFHTELERLSAKDIQTNVYIRHPVSLEQYLMEGSYNKVFLAKGNIPAESYTFFIDTLLDTIRDEIAGCIEKAYEQIQFNEATRVLFFSSPKKMTDYAKKRNWTQSPDGYYSFSTQHQKTEEVTIPSTELAKQVIEYARQLEMIV,soluble
6,SATREWFVMNAQQTKLALESPPLFAVKKDDDKDHTCDTGEEPYALVGSPVFNPLEDYKREVVSIIDEYFSSGDVEVAASDLMDLGLSEYHPYFVKRLVSMAMDRGNKEKEKASVLLSRLYALVVSPDQIRVGFIRLLESVGDLALDIPDAVNVLALFIARAIVDEILPPVFLARAKKTLPHSSQGFQVILVSENSYLSAPHHAELVETKWGGSTHITVEETKRKISEFLNEYVENGDTREACRCIRELGVSFFHHEIVKSGLVLVMESRTSEPLILKLLKEATEEGLISSSQMAKGFSRVADSLDDLSLDIPSAKTLFESIVPKAIIGGWLDEDSFKERSDQNGGSENLRRFKKDAETIIQEYFLSDDIPELIRSLEDLGLPEYNPVFLKKLITLAMDRKNKEKEMASVFLASLHMEMFSTEDFINGFIMLLESAEDTALDILAASDELALFLARAVIDDVLAPLNLEEISNSLPPKSTGSETIRSARSLISARHAGERLLRSWGGGTGWAVEDAKDKIWKLLEEYEVGGVISEACRCIRDLGMPFFNHEVVKKALVMAMEKKNDRMLNLLQECFAEGIITTNQMTKGFGRVKDSLDDLSLDIPNAEEKFNSYVAHAEENGWLHRDFGCSTDS,soluble
7,SATSTTIAKHIGNSNPLIDHHLGADPVALTYNGRVYIYMSSDDYEYNSNGTIKDNSFANLNRVFVISSADMVNWTDHGAIPVAGANGANGGRGIAKWAGASWAPSIAVKKINGKDKFFLYFANSGGGIGVLTADSPIGPWTDPIGKPLVTPSTPGMSGVVWLFDPAVFVDDDGTGYLYAGGGVPGVSNPTQGQWANPKTARVIKLGPDMTSVVGSASTIDAPFMFEDSGLHKYNGTYYYSYCINFGGTHPADKPPGEIGYMTSSSPMGPFTYRGHFLKNPGAFFGGGGNNHHAVFNFKNEWYVVYHAQTVSSALFGAGKGYRSPHINKLVHNADGSIQEVAANYAGVTQISNLNPYNRVEAETFAWNGRILTEKSTAPGGPVNNQHVTSIQNGDWIAVGNADFGAGGARSFKANVASTLGGKIEVRLDSADGKLVGTLNVPSTGGAQTWREIETAVSGATGVHKVFFVFTGTGTGNLFNFDYWQFTQR,soluble
8,SAVPAILQVITESTGLGFAAVARVTEDSWTACAVLDNLGFGLKPGGELELISTICHEIRASHKPVVIDHVAEDELFCAHHTPRRYNFQSYISIPIFLTDGSFFGTICALDPKPAKLTGTPIEAMMVSFARLLALQIEAEENMQRVQ,soluble
9,SDLDYGGVPLWINRFLGEPSVLTLKDRIDPGWYRAVNTQSCPLECDCPIQWPTAIYCDHRGLNQLPSGLPFRLQYLFLQGNNITSLGSRAFDNTTYLRWLILDHNELLSEQLDNVLFSSLTRLVNLFINHNNLTKVPAGLPSGLKQLRLAYNHIEKISEGDFQNLDSLTLILLQGNRLKTIEEGDFKGLGALNLLDLSHNFLDTFPKHLPPSVQQLYLSNNSLTGLSENSLHAFSGLRYLRLGHNKLRNERLDPGAFNLTSLVELDLSYNRLTEIPSVPITLQYLYLEVNHIQEFNVSSFCRTVGPTSYSRMKILRLDGNKLEYHKLPPDWVFCLRVLHNIYI,soluble
10,SEKANALFETIFMENIMASPIAQTYMGIKQDYDKWDEIGDEADALELARTQKQLAEINQLDASKLDPQTRLSLALLTQNLNNDIKDYQWRYHTYPVNQMRGGHSMIASFLINQHQITDVSDAKAYISRLNGVPKRLTQLQKALEVRAEKGIIAPKFVFGYVISDSQNILKGAPFDKNEDSALLADFRKKVKALSIPETEKAPLIAEAEKALTSQVAPAYKALISYIKTLEAKADTRDGVWKLPDGDAFYNNALARTTTTDMTADEIHQLGLAEVERIHNEMRAIMKKVHFNGTLQAFFAFMRNNPQFYYPNTPEGKAAYLADATQLIDNMHSRLDEVFKVKPKAAMIVKQVESFREKSAGKAFYEQPAPDGSRPGSYYANLYDMKAMPKYQMEALAYHEGIPGHHMQIAISQELKDIPKFRKFGGYTAYIEGWGLYSESFPKEMGLYADPYSDFGRLAMELWRACRLVVDTGIHAKKWTREQGIAYYVDNTPNAKSDAVKMVERHIVMPSQATAYKVGMIKLLELRHKAEKQLGDKFDIRDFHTLILANGALPLDVLEEHVNQWIASVNK,not soluble
11,SEMLASLKEHPNELLDLLNSIITDFELAVDDLIENFMQSDFDALKLTMHTTKGMALNLGLKILASQALELETQLKMNQVPAIEQLQMLINRLQVNIHQGHRLRDELVKAQQNSEQVF,not soluble
12,SEPGETIVEAMQREVKEEAGLLCEPVTLLSVEERGASWIRFVFLARPTGGVLKTSKDADSESLQAGWYPRVSLPTPLRAHDVLHLVELGAKFCQQAMHPLILPQELPCSVVCQRLVTTFTTVQSVWVLVGTVGTPHLPITACGFTPMEQRGGIKVAILRLLQECLTLHSLAVETKGLLGLQHLGRDHVDGVCLNVLVTVAFRNPGIQDEPPKIRGENYFWWKVLEEDLQKLLLYRLQESSVIPLSR,soluble
13,SEQHAQGADAVVDLNNELKTRREKLANLREQGIAFPNDFRRDHTSDQLHAEFDGKENEELEALNIEVAVAGRMMTRRIMGKASFVTLQDVGGRIQLYVARDDLPEGVYNEQFKKWDLGDILGAKGKLFKTKTGELSIHCTELRLLTKALRPLPDKFHGLQDQEARYRQRYLDLISNDESRNTFKVRSQILSGIRQFMVNRGFMEVETPMMQVIPGGAAARPFITHHNALDLDMYLRIAPELYLKRLVVGGFERVFEINRNFRNEGISVRHNPEFTMMELYMAYADYKDLIELTESLFRTLAQDILGKTEVTYGDVTLDFGKPFEKLTMREAIKKYRPETDMADLDNFDSAKAIAESIGIHVEKSWGLGRIVTEIFEEVAEAHLIQPTFITEYPAEVSPLARRNDVNPEITDRFEFFIGGREIGNGFSELNDAEDQAQRFLDQVAAKDAGDDEAMFYDEDYVTALEHGLPPTAGLGIGIDRMVMLFTNSHTIRDVILFPAMRPVK,soluble
14,SEQKYEEDIQKLQQEIEMLEAEQEETLRSIFVQHGDRLQQGVKSACEERGGGGAQQHTLSKLITEVRELEKDLRRQTEINGITLNECFVKTLHKSERKLIQQLRLAGHCGLLLFQVEFAVTEIQEDNVLHRRVTELNIVVDGVEFKDFSAFVSRVEDTKDLLLFFRTLRTFSERCEDRRQTFQHFQEKYPDVVNLPEGCRSEIMIIRSPQLPGISMTLFWKIHVSKEGVVKPLLDLLLKMPDQALELDTKKVMEKASDYFQSLLQLLGVEASIEGLIRTVCS,soluble
15,SEVLRPQLIRIDGRNYRKNPVQEQTYQHEEDEEDFYQGSMECADEPCDAYEVEQTPQGFRSTLRAPSLLYKHIVGKRGDTRKKIEMETKTSISIPKPGQDGEIVITGQHRNGVISARTRIDVLLDTFRRKQPFTHFLAFFLNEVEVQEGFLRFQEEVLAKCSMDHGVDSSIFQNPKKLHLTIGMLVLLSEEEIQQTCEMLQQCKEEFINDISGGKPLEVEMAGIEYMNDDPGMVDVLYAKVHMKDGSNRLQELVDRVLERFQASGLIVKEWNSVKLHATVMNTLFRKDPNAEGRYNLYTAEGKYIFKERESFDGRNILKLFENFYFGSLKLNSIHISQRFTVDSFGNYASCGQIDFS,soluble
16,SFWGWLNAVFNKVDHDRIRDVGPDRAASEWLLRCGAMVRYHGQQRWQKDYNHLPTGPLDKYKIQAIDATDSCIMSIGFDHMEGLQYVEKIRLCKCHYIEDGCLERLSQLENLQKSMLEMEIISCGNVTDKGIIALHHFRNLKYLFLSDLPGVKEKEKIVQAFKTSLPSLELKLDLK,soluble
17,SGDRSMVEVLADHPGELVRTDSPNFLSSVLPTHWRSNKTLPIAFKVVALGDVPDGTLVTVMAGNDENYSAELRNATAAMKNQVARFNDLRFVGRSGRGKSFTLTITVFTNPPQVATYHRAIKITVDGPREPRRHRQKLDD,soluble
18,SGIMHQINNVYSLTPLSLPMELTPSCNEFYLKTWSEWEKNGTPGEQRNIAFNRLKICLQNQEAELNLSELDLKTLPDLPPQITTLEIRKNLLTHLPDLPPMLKVIHAQFNQLESLPALPETLEELNAGDNKIKELPFLPENLTHLRVHNNRLHILPLLPPELKLLVVSGNRLDSIPPFPDKLEGLALANNFIEQLPELPFSMNRAVLMNNNLTTLPESVLRLAQNAFVNVAGNPLSGHT,not soluble
19,SGLIGEGLKDVKSAAGDTRVDNFADRLAALSQAAQPARAVAAPASAPLMNQPLAMHQSGWTEGIVDRVMYLSSQNLKTADIKLEPAELGRLDIRINMAPEQQTQVTFMSAHMGVRDALESQMSKLRESFVQQGLGNVDVNVSDQS,not soluble
20,SGNLDDNKFTWVIKNVPTLNSDMLFSNYFVIGGCSWRVVAHSKENNFKESLSLTLIVAEDSAQKMGCGWSRYAKIIFTLVNQISEILSQRIETMFDQKSSVFSSETMFSIGKFDEHFAGFIVNGEIKIVVEFLEIIDKLVLSKESNPPFKKTKLNNDGEVSKDLIREVPVIMESIVVNGFHVLPSQVEFVKRIFEKHPDVAKEFRPTNRIVKTAYMNVLLSLIETLRQSPREISKNDLDGACGLLRSMKEAGFKLDWLEKKLNEVLEKKEKEESYETRMREIEEEMKDLKAKALDVGAPLRLDDVV,not soluble
21,SIPAGITAAYIHKGHDTTHGGGEMVLEVPHDKTIPVLRFLRDHSSCLYDCFIDCTAADFPQKPQRFRVVYNLLSLKYSSRIRVQTHVDEVTPIESATCLFKGANWPEREVWDLFGVFFYNHPDLRRILTDYGFEGHPLRKDFPLSGYVEVRYDDTEKRVVIEPVEITQEYRAFDYTSPWEVFPEGGNFEEAEKLPERV,soluble
22,SKAQEKGEAISLAFKGVKAEFLKRPEADVHFVCNDGHVIDEMLDHTIATGERVNRDVKIIALCPSLHGQEPMAEFALTLSIKKAAQHTKKAA,not soluble
